# IntAct's records for PubMed 31515488
# B1: mRNA-decapping enzyme 1A (Homo sapiens), Q9NPI6 (parent)
# chain: MEALSRAGQEMSLAALKQHDPYITSIADLTGQVALYTFCPKANQWEKTDIEGTLFVYRRSASPYHGFTIVNRLNMHNLVEPVNKDLEFQLHEPFLLYRNASLSIYSIWFYDKNDCHRIAKLMADVVEEETRRSQQAARDKQSPSQANGCSDHRPIDILEMLSRAKDEYERNQMGDSNISSPGLQPSTQLSNLGSTETLEEMPSGSQDKSAPSGHKHLTVEELFGTSLPKEQPAVVGLDSEEMERLPGDASQKEPNSFLPFPFEQLGGAPQSETLGVPSAAHHSVQPEITTPVLITPASITQSNEKHAPTYTIPLSPVLSPTLPAEAPTAQVPPSLPRNSTMMQAVKTTPRQRSPLLNQPVPELSHASLIANQSPFRAPLNVTNTAGTSLPSVDLLQKLRLTPQHDQIQTQPLGKGAMVASFSPAAGQLATPESFIEPPSKTAAARVAASASLSNMVLAPLQSMQQNQDPEVFVQPKVLSSAIPVAGAPLVTATTTAVSSVLLAPSVFQQTVTRSSDLERKASSPSPLTIGTPESQRKPSIILSKSQLQDTLIHLIKNDSSFLSTLHEVYLQVLTKNKDNHNL
# B2: Myomegalin (Homo sapiens), Q5VU43-2 (parent)
# chain: MKEICRICARELCGNQRRWIFHTASKLNLQVLLSHVLGKDVPRDGKAEFACSKCAFMLDRIYRFDTVIARIEALSIERLQKLLLEKDRLKFCIASMYRKNNDDSGAEIKAGNGTVDMSVLPDARYSALLQEDFAYSGFECWVENEDQIQEPHSCHGSEGPGNRPRRCRGCAALRVADSDYEAICKVPRKVARSISCGPSSRWSTSICTEEPALSEVGPPDLASTKVPPDGESMEEETPGSSVESLDASVQASPPQQKDEETERSAKELGKCDCCSDDQAPQHGCNHKLELALSMIKGLDYKPIQSPRGSRLPIPVKSSLPGAKPGPSMTDGVSSGFLNRSLKPLYKTPVSYPLELSDLQELWDDLCEDYLPLRVQPMTEELLKQQKLNSHETTITQQSVSDSHLAELQEKIQQTEATNKILQEKLNEMSYELKCAQESSQKQDGTIQNLKETLKSRERETEELYQVIEGQNDTMAKLREMLHQSQLGQLHSSEGTSPAQQQVALLDLQSALFCSQLEIQKLQRVVRQKERQLADAKQCVQFVEAAAHESEQQKEASWKHNQELRKALQQLQEELQNKSQQLRAWEAEKYNEIRTQEQNIQHLNHSLSHKEQLLQEFRELLQYRDNSDKTLEANEMLLEKLRQRIHDKAVALERAIDEKFSALEEKEKELRQLRLAVRERDHDLERLRDVLSSNEATMQSMESLLRAKGLEVEQLSTTCQNLQWLKEEMETKFSRWQKEQESIIQQLQTSLHDRNKEVEDLSATLLCKLGPGQSEIAEELCQRLQRKERMLQDLLSDRNKQVLEHEMEIQGLLQSVSTREQESQAAAEKLVQALMERNSELQALRQYLGGRDSLMSQAPISNQQAEVTPTGRLGKQTDQGSMQIPSRDDSTSLTAKEDVSIPRSTLGDLDTVAGLEKELSNAKEELELMAKKERESQMELSALQSMMAVQEEELQVQAADMESLTRNIQIKEDLIKDLQMQLVDPEDIPAMERLTQEVLLLREKVASVESQGQEISGNRRQQLLLMLEGLVDERSRLNEALQAERQLYSSLVKFHAHPESSERDRTLQVELEGAQVLRSRLEEVLGRSLERLNRLETLAAIGGAAAGDDTEDTSTEFTDSIEEEAAHHSHQQL
# B3: TNF receptor-associated factor 1 (Homo sapiens), Q13077 (parent)
# chain: MASSSGSSPRPAPDENEFPFGCPPTVCQDPKEPRALCCAGCLSENPRNGEDQICPKCRGEDLQSISPGSRLRTQEKAHPEVAEAGIGCPFAGVGCSFKGSPQSVQEHEVTSQTSHLNLLLGFMKQWKARLGCGLESGPMALEQNLSDLQLQAAVEVAGDLEVDCYRAPCSESQEELALQHFMKEKLLAELEGKLRVFENIVAVLNKEVEASHLALATSIHQSQLDRERILSLEQRVVELQQTLAQKDQALGKLEQSLRLMEEASFDGTFLWKITNVTRRCHESACGRTVSLFSPAFYTAKYGYKLCLRLYLNGDGTGKRTHLSLFIVIMRGEYDALLPWPFRNKVTFMLLDQNNREHAIDAFRPDLSSASFQRPQSETNVASGCPLFFPLSKLQSPKHAYVKDDTMFLKCIVETST
# Variants of: B1
# Conditions: with pnrc2_human PNRC2, Q9NPJ4
# Sequence of pnrc2_human PNRC2, Q9NPJ4 (Q9NPJ4 whole entry): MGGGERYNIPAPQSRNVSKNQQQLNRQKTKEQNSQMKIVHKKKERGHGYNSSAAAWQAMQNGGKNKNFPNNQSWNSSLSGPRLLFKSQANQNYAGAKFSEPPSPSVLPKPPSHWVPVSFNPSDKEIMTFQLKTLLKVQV
row,effect of a mutation on the interaction,Variant
1,with no effect,Q474H
2,with no effect,A297G
3,with no effect,P332T

# Variants of: B2
# Conditions: with prp31_human PRPF31, Q8WWY3
# Sequence of prp31_human PRPF31, Q8WWY3 (Q8WWY3 whole entry): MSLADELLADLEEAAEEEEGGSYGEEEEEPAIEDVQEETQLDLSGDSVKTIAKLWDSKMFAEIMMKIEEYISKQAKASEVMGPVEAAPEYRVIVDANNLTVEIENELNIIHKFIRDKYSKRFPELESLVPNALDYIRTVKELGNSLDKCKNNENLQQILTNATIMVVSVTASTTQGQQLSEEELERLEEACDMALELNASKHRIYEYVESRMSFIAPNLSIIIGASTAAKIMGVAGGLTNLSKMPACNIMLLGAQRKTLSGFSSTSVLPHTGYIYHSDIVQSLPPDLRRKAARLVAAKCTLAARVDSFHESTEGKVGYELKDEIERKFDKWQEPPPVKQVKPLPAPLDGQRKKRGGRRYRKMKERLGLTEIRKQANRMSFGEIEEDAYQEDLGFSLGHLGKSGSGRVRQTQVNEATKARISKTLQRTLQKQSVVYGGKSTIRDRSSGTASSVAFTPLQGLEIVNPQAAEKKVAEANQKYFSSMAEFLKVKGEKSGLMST
row,effect of a mutation on the interaction,Variant
1,with no effect,N28S

# Variants of: B2
# Conditions: with sdcb1_human SDCBP
row,effect of a mutation on the interaction,Variant
1,with no effect,N28S

# Variants of: B2
# Conditions: with mare1_human MAPRE1, Q15691
# Sequence of mare1_human MAPRE1, Q15691 (Q15691 whole entry): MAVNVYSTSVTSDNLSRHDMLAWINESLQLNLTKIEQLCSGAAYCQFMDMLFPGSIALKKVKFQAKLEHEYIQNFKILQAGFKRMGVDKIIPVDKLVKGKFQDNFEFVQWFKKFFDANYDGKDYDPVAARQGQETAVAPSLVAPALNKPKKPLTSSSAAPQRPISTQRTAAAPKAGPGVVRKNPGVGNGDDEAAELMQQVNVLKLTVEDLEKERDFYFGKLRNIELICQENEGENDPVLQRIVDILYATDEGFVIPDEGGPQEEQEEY
row,effect of a mutation on the interaction,Variant
1,with no effect,N28S

# Variants of: B3
# Conditions: with traf2_human TRAF2, Q12933
# Sequence of traf2_human TRAF2, Q12933 (Q12933 whole entry): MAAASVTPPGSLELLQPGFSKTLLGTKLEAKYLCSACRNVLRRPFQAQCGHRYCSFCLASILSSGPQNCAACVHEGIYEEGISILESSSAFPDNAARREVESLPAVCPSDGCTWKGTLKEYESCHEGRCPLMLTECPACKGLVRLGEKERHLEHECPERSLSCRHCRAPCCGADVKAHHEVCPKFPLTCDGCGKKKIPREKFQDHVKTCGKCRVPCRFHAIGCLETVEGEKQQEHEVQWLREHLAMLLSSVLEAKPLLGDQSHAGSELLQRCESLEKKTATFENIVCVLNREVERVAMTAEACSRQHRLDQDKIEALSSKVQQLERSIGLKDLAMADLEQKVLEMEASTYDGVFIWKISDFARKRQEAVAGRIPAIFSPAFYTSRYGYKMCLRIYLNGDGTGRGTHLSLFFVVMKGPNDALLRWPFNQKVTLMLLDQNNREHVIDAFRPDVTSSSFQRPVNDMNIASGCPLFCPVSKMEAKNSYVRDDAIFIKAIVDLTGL
row,effect of a mutation on the interaction,Variant
1,with no effect,V208M
2,with no effect,K193R
